Test results: patent US20090202574A1, “METHODS OF IMMUNE OR HAEMATOLOGICAL ENHANCEMENT, INHIBITING TUMOUR FORMATION OR GROWTH, AND TREATING OR PREVENTING CANCER” (priority 2004, published 2009)

Assays:
[1] = tested on: Th1 (IL-18, TNF-α, IFN-γ) and Th2 (IL-4, IL-5, IL-6, IL-10) cytokines; assay: ELISA of Th1 and Th2 cytokines in intestine and tumour; assay type: in vivo, mice; conditions: Example 14
Method: (§1) Cytokine levels in the supernatants of homogenates of the small intestine were determined using a “sandwich” ELISA kit (Endogen, Woburn, Mass.). They were detected within standard curve ranges of 15-375 pg/ml for IL-4, 0-2450 pg/ml for IL-5, 15-1000 pg/ml for TNF-α, 0-3000 pg/ml for IFN-γ, 37-3000 pg/ml for IL-10, 31.3-2000 pg/ml for IL-12, and 31.3-2000 pg/ml for IL-18, respectively. Quantification of nitrite, indicative of NO production, was carried out by the Griess reaction (Sigma, USA). The results are expressed as the mean nitrite concentration (μM)±SD.
The ability of oral iron-saturated lactoferrin to affect the expression of a panel of Th1 and Th2 cytokines was examined in non-tumour-bearing mice, and in tumour-bearing mice fed iron-saturated bovine lactoferrin or the control diet, and treated with either paclitaxel or doxorubicin or a combination of the two drugs.

B16 target cells = assay: Anti-tumour cytolytic activity of splenocytes against B16 target cells; assay type: in vivo, C57BL/6 mice; conditions: Example 18, FIG. 14D (fluorouracil experiment), vs controls
Method: (§2) Splenocytes were tested for their cytolytic activity against tumour target cells. […] Referring to FIGS. 14B, D, and F the percent cytotoxicity is plotted against various effector-to-target cell ratios (E:T ratios); each point represents the mean percent cytotoxicity obtained from 5 mice; and the bar represents 95% confidence intervals.

IL-18 = IL-18 production by cultured intestinal loops; assay type: cell-based, mice; conditions: Example 20; 400 and 800 μg/ml; 48 h; vs bovine serum albumin control protein
Method: as §1
100% Fe-saturated Lf, natural Lf (less than 20% iron saturated), and bovine serum albumin control were added at 400 and 800 μg/ml to intestinal loops (2.5 cm segments of the small intestine) prepared from healthy 6 to 7 week-old female mice, which were kept in culture for 48 h. IL-18 levels released by the intestinal loops, and present in the supernatants of homogenates of the small intestine were determined using a “sandwich” ELISA kit as described above.

[2] = tested on: cultured EL-4 tumour cells; assay: Apoptosis of cultured EL-4 tumour cells triggered by sera of fed mice; assay type: cell-based, C57BL/6 mice; conditions: Example 17; sera after 6 weeks of 28 g per 2.4 Kg diet; vs spontaneous apoptosis; control-diet sera 80%
Method: Feeding of Fe-saturated lactoferrin releases anti-tumour factors into the systemic circulation. Fifteen 8 to 9 week-old female C57BL/6 mice were fed the control AIN-93 diet or a diet supplemented with 28 g of 100% Fe-saturated lactoferrin per 2.4 Kg of diet. Sera was collected from experimental and control mice after 6 weeks of feeding the latter diets and tested for their ability to trigger the apoptosis of cultured EL-4 tumour cells.
Sera collected from experimental and control mice was tested for its ability to trigger the apoptosis of cultured EL-4 tumour cells. EL-4 cells (2×10^3) in 80 μl of DMEM media were incubated for 24 h in the presence or absence of 100 μl of sera that had been concentrated to 20 μl. The cells were then washed, permeabilized with a solution containing 0.1% Triton X-100 and 0.1% sodium citrate, and incubated with 20 μl of TUNEL reagent (In Situ apoptosis detection kit from Boehringer Mannheim, Germany) for 60 min at 37° C., and examined by fluorescence microscopy. Total numbers of cells were counted by staining the cells with methylene blue. The number of apoptotic cells was counted in ten randomly selected fields (magnification of ×40). The apototic index (AI) was calculated as the number of apoptotic cells×100/total number of nucleated cells.

[3] = Western blot detection of bovine lactoferrin in plasma, tumour and organs of fed mice; assay type: in vivo; conditions: oral diet
Method: Groups of 5 tumour-bearing mice were fed either the control diet or an iron-saturated bovine lactoferrin diet and treated with paclitaxel or doxorubicin, as indicated. Mice were killed on days described in Example 6 and plasma collected. Referring to FIG. 6, plasma proteins (80 μg) were separated on a 10% polyacrylamide SDS-gel, transferred to a membrane, and blotted with an antibody against bovine lactoferrin (upper panel). The relative amounts of bovine lactoferrin in each lane were recorded by densitometry (lower panel). The order of the plasma samples shown in the histograph is the same for the Western blot. A 75 kDa band characteristic of lactoferrin was present in the plasma samples taken from all the different treatment groups fed bovine lactoferrin, whereas this same band was absent from the plasma of mice fed the control diet (FIG. 6).
Tumour homogenates and sections were screened to determine whether lactoferrin in the systemic circulation reached the tumour site. A group of 5 tumour-bearing mice were fed the control diet or an iron-saturated bovine lactoferrin diet, and treated with paclitaxel and doxorubicin. Mice were killed on days described in Example 6, and tissues from the tumour and small intestine were collected. Tumour and intestine homogenates (80 μg of protein) were separated on a 10% polyacrylamide SDS-gel, transferred to a membrane, and Western blotted with an antibody against bovine lactoferrin (upper panel of FIG. 7). The relative amounts of bovine lactoferrin in each lane were recorded by densitometry (lower panel of FIG. 7). The order of the plasma samples shown in the histograph is the same for the Western blot.
A group of 5 tumour-bearing mice were fed an iron-saturated bovine lactoferrin diet. Mice were killed on days described in Example 6, and tissues from multiple organs, including different regions of the intestine, were collected. Organ homogenates (80 μg of protein) were separated on a 10% polyacrylamide SDS-gel, transferred to a membrane, and blotted with either an antibody against bovine lactoferrin (upper panel of FIG. 8A) or an anti-α-tubulin mAb (middle panel of FIG. 8A). Bovine lactoferrin (1 μg) was included as a standard. The relative amounts of bovine lactoferrin in each lane were recorded by densitometry (lower panel of FIG. 8A). The order of the plasma samples shown in the histograph is the same for the Western blot. […] Roughly equal amounts of bovine lactoferrin were retained by the proximal and distal regions of the small intestine, and the large intestine.

LLC target cells = assay: Anti-tumour cytolytic activity of splenocytes against LLC target cells; assay type: in vivo, C57BL/6 mice; conditions: Example 18, FIG. 14B (epirubucin experiment), vs controls
Method: as §2

B1: iron-saturated bovine lactoferrin: Iron-saturated bovine lactoferrin extract (100% saturated) prepared from natural bLf (protein)
chain: APRKNVRWCTISQPEWFKCRRWQWRMKKLGAPSITCVRRAFALECIRAIAEKKADAVTLDGGMVFEAGRDPYKLRPVAAEIYGTKESPQTHYYAVAVVKKGSNFQLDQLQGRKSCHTGLGRSAGWIIPMGILRPYLSWTESLEPLQGAVAKFFSASCVPCIDRQAYPNLCQLCKGEGENQCACSSREPYFGYSGAFKCLQDGAGDVAFVKETTVFENLPEKADRDQYELLCLNNSRAPVDAFKECHLAQVPSHAVVARSVDGKEDLIWKLLSKAQEKFGKNKSRSFQLFGSPPGQRDLLFKDSALGFLRIPSKVDSALYLGSRYLTTLKNLRETAEEVKARYTRVVWCAVGPEEQKKCQQWSQQSGQNVTCATASTTDDCIVLVLKGEADALNLDGGYIYTAGKCGLVPVLAENRKSSKHSSLDCVLRPTEGYLAVAVVKKANEGLTWNSLKDKKSCHTAVDRTAGWNIPMGLIVNQTGSCAFDEFFSQSCAPGADPKSRLCALCAGDDQGLDKCVPNSKEKYYGYTGAFRCLAEDVGDVAFVKNDTVWENTNGESTADWAKNLNREDFRLLCLDGTRKPVTEAQSCHLAVAPNHAVVSRSDRAAHVKQVLLHQQALFGKNGKNCPDKFCLFKSETKNLLFNDNTECLAKLGGRPTYEEYLGTEYVTAIANLKKCSTSPLLEACAFLTR
modifications: iron-saturated; Bovine Lactoferrin
notes: Iron-saturated bovine lactoferrin extract (100% saturated) prepared from natural bLf
With B1 the “cytokines within the tumor site” value [1] was “increased the presence of all cytokines”, the “levels of IL-18 and IL-10 in tumour-bearing mice relative to non-tumour-bearing mice” value ([1]; oral feeding) was “less than half” and the “increase in anti-tumour cytolytic activity” value (B16 target cells) was 45%. The “increase in the levels of IL-18 in the intestine” value (IL-18) was 10 fold, the “increase in tumour cell apoptosis induced by sera” value [2] was 300% and the “state of bovine lactoferrin in plasma” value ([3]; Example 9, Western blot) was “largely undegraded”. For the same molecule, the “75 kDa band characteristic of lactoferrin in plasma” value ([3]; Example 9, Western blot of plasma) was “present”, the “75 kDa band and partially degraded products in tumour and small intestine” value ([3]; Example 10, homogenates) was “present in homogenates of both the tumour and small intestine” and the “bovine lactoferrin of 75 kDa in organs” value ([3]; Example 11, organ homogenates) was “present in all regions of the intestine, and in the liver, but it was also present in lesser amounts in spleen, heart, lung, kidney, and brain”. For the same molecule, the “increase in anti-tumour cytolytic activity” value (LLC target cells) was 150%.
